In the experiment the target is wild-type cystic fibrosis transmembrane conductance regulator (CFTR) (Homo sapiens (Human)) (UniProt P13569). As to the kind of experiment: CFTR co-IP, MudPIT MS; BHK wt.
Chain of wild-type cystic fibrosis transmembrane conductance regulator (CFTR) (Homo sapiens (Human)) (P13569 whole entry): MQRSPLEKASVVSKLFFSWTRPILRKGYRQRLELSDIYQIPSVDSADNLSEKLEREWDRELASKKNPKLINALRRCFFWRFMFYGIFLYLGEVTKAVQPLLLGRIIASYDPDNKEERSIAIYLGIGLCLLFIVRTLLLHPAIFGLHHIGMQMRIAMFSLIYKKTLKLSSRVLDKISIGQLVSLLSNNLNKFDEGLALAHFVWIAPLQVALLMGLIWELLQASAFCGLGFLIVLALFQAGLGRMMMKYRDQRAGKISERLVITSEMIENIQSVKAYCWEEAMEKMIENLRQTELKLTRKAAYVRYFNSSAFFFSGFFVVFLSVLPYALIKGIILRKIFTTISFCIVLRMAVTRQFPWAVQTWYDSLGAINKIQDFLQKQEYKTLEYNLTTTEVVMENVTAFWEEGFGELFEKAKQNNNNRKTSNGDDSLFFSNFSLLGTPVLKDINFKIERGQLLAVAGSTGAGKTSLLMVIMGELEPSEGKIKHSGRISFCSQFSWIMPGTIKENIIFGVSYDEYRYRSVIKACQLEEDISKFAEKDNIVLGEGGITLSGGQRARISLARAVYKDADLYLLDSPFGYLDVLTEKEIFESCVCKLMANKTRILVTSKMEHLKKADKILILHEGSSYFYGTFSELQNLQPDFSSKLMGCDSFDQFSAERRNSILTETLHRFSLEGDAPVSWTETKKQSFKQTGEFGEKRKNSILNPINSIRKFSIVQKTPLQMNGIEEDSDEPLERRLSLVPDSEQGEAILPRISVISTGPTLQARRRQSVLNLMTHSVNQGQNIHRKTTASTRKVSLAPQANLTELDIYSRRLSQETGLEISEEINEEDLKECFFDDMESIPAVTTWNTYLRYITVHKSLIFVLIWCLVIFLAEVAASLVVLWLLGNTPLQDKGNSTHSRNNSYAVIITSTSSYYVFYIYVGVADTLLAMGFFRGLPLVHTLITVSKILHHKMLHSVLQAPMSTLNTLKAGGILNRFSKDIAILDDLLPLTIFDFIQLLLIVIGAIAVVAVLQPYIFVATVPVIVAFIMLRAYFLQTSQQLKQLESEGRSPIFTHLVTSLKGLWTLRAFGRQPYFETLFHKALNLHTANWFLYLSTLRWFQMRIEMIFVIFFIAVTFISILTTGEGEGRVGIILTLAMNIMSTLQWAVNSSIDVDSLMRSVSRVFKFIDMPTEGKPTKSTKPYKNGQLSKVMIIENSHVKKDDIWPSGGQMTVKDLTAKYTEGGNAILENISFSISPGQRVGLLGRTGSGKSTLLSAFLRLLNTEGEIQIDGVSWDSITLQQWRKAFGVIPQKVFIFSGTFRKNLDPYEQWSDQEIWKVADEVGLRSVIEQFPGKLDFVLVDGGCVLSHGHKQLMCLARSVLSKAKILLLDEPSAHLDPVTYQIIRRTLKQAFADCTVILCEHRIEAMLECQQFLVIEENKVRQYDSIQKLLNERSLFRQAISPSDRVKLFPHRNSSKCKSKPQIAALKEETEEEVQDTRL

B1: Calnexin (protein, UniProt P27824 21-592, looked up)
chain: HDGHDDDVIDIEDDLDDVIEEVEDSKPDTTAPPSSPKVTYKAPVPTGEVYFADSFDRGTLSGWILSKAKKDDTDDEIAKYDGKWEVEEMKESKLPGDKGLVLMSRAKHHAISAKLNKPFLFDTKPLIVQYEVNFQNGIECGGAYVKLLSKTPELNLDQFHDKTPYTIMFGPDKCGEDYKLHFIFRHKNPKTGIYEEKHAKRPDADLKTYFTDKKTHLYTLILNPDNSFEILVDQSVVNSGNLLNDMTPPVNPSREIEDPEDRKPEDWDERPKIPDPEAVKPDDWDEDAPAKIPDEEATKPEGWLDDEPEYVPDPDAEKPEDWDEDMDGEWEAPQIANPRCESAPGCGVWQRPVIDNPNYKGKWKPPMIDNPSYQGIWKPRKIPNPDFFEDLEPFRMTPFSAIGLELWSMTSDIFFDNFIICADRRIVDDWANDGWGLKKAADGAAEPGVVGQMIEAAEERPWLWVVYILTVALPVFLVILFCCSGKKQTSGMEYKKTDAPQPDVKEEEEEKEEEKDKGDEEEEGEEKLEEKQKSDAEEDGGTVSQEEEDRKPKAEEDEILNRSPRNRKPRRE
On to B1, for which the % sequence coverage worked out at 10%, the total spectra came to 7 spectra and the unique spectra was 4 spectra.
